The target of experiment [1] is SARS-CoV-2 Omicron BA.1 Spike (14-1209, S2P) (SARS-CoV-2) (UniProt P0DTC2). The experiment in a line: cryo-EM structure.
Experiment [2] deals with SARS-CoV-2 Delta Spike (14-1209, S2P) (SARS-CoV-2) (UniProt P0DTC2). The experiment in a line: cryo-EM structure.

By stoichiometry N is commonly meant a count of units in the complex or per binding partner.

As to “SARS-CoV-2 Omicron BA.1 Spike (14-1209, S2P) (from UniProt P0DTC2 14-1209) (natural protein)”, the stoichiometry N in experiment [1] amounted to 3.

Take “SARS-CoV-2 Delta Spike (14-1209, S2P) (from UniProt P0DTC2 14-1209) (natural protein)”: the stoichiometry N in experiment [2] amounted to 3.

The record behind these values is PMC9852238.
